Data reported in the nanobody polyreactivity screen of Harvey et al. (2022).

Test: yeast display, Sf9 membrane polyspecificity reagent, FACS + sequencing; frameworks hold sequencing errors
How it was run: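 A synthetic nanobody library was expressed on Saccharomyces cerevisiae BJ5465 by galactose induction for 36–48 hours. The library was stained for 1 hour at 4 °C with 10% biotinylated, detergent-solubilized Sf9 membrane reagent and enriched with streptavidin microbeads before FACS. Low and high (top ~1%) gates were set on anti-HA fluorescence for expression and streptavidin fluorescence for reagent binding, and each polyreactivity label reflects the gate of origin.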

Sequence	polyreactivity (PSR sort gate)
QVQLVESGGGLVQAGGSLRLSCAASGYIFGNYAMGWYRQAPGKERELVADITWRGDSTYADSVKGRFTISRDNAKKTVYLQMNSLKPEDTAVYYCAADIATEYWYTGYDHWGQGTQVTVSS	low polyreactivity
QVQLVESGGGLVQAGGSLRLSCAASGYIFGTYGMGWYRQAPGKERELVAGISRSGTSTYYADSVKGRFTISRDNAKNTVYLQMNSLKPEDTAVYYCAAVSRTRYEYWGQGTQVTVSS	high polyreactivity
QVQLVESGGGLVQAGGSLRLSCAASGYIFGWYAMGWYRQAPGKERELVATIDWSGDSTYYADSVKGRFTISRDNAKNTVYLQMNSLKPEDTAVYYCSAGVGYITYYGYDYWGQGTQVTVSS	low polyreactivity
QVQLVESGGGLVQAGGSLRLSCAASGYIFGYVMGWYRQAPGKERELVAAITYSSGNTYYADSVKGRFTISRDNAKNTVYLQMNSLKPEDTAVYYCAKQAYYKGRLAYGYWGQGTQVTVSS	high polyreactivity
QVQLVESGGGLVQAGGSLRLSCAASGYIFHRYAMGWYRQAPGKEREFVAAIRWSGGSTYYADSVKGRFTISRDNAKNTVYLQMNSLKPEDTAVYYCAADKYVLGYYYGQYDYWGQGTQVTVSS	low polyreactivity
QVQLVESGGGLVQAGGSLRLSCAASGYIFKYYAMGWYRQAPGKERELVAAISRSGDSTYYADSVKGRFTISRDNAKNTVYLQMNSLKPEATAVYYCKARYWHGPTGSDYWGQGTQVTVSS	high polyreactivity
QVQLVESGGGLVQAGGSLRLSCAASGYIFKYYAMGWYRQAPGKERELVATINYSGGGTYYADSVKGRFTISRDNAKNTVYLQMNRLKPEDTAVYYCAAREKYISYSYYYWGQCTQVTVSS	high polyreactivity
QVQLVESGGGLVQAGGSLRLSCAASGYIFLANAMGWYRQAPGKERELVAAITSGGGGTYYADSVKGRFTISRDNAKNTVYLQMNSLKPEDTAVYYCAADHGRDGSSFEYWGQGTQVTVSS	low polyreactivity
QVQLVESGGGLVQAGGSLRLSCAASGYIFLGNAMGWYRQAPGKERELVAAINSSGGSTYYADSVKGRFTISRDNAKNTVYLQMNSLKPEDTAVYYCATSDRDGIYVVPHMDYWGQGTQVTVSS	low polyreactivity
QVQLVESGGGLVQAGGSLRLSCAASGYIFLPYAMGWYRQAPGKERELVAAITSVGRTYYADSVKGRFTISRDNAKNTVYLQMNSLKPEDTAVYYCAAPRGHGKYYSWGQGTQVTVSS	high polyreactivity
QVQLVESGGGLVQAGGSLRLSCAASGYIFLVYAMGRSRHAPRKERELVASITRGTRTYYADSVKGRFTISRDNAKNTVYLQMNILKPEDSAVYYCAASQNIRDWFRFGYGSWGQGTQVTVSS	low polyreactivity
QVQLVESGGGLVQAGGSLRLSCAASGYIFNGNAMGWYRQAPGKERELVATITRRGGSTYYADSVKGRFTISRDNAKNTVYLQMNSLKPEDTAVYYCNKRDYSGDYYGPLDYWGQGTQVTVSS	high polyreactivity
QVQLVESGGGLVQAGGSLRLSCAASGYIFPRYAMGWYRQAPGKERELVAAITGSGGSTYYADSVKGRFTISRDNAKNTVYLQMNSLKPEDTAVYYCNTVYYRSGSQRLDYWGQGTQVTVSS	high polyreactivity
QVQLVESGGGLVQAGGSLRLSCAASGYIFPYNAMGWYRQAPGKERELVATITWTGGSKYYADSVKGRFTISRDNAKNTVYLQMNSLKPEDTAVYDCADDLSIRYDHEYGYWGQGTQVTVSS	low polyreactivity
QVQLVESGGGLVQAGGSLRLSCAASGYIFRGYVMGWYRQAPGTERELVAGISRSGSSTYYADSVKGRFTISRDNAKNNVYLQMNSLKPEDTAVYYCAAVRSGIEYGYWGQGTQVTVSS	high polyreactivity
QVQLVESGGGLVQAGGSLRLSCAASGYIFRHYAMVWYRQAPGKERELVAAISSSGGRTNYADSLKGRFTISRDNAKITVYLQMNSLKPEDTAVYYCNAGRYQYLGGYGYWGQGTQVTVSS	low polyreactivity
QVQLVESGGGLVQAGGSLRLSCAASGYIFRIYAMGWYRQAPGKERELVATITNGGSTHYADSVKGRFTISRDNAKNTVYLQMNSLKPEDTAVYYCAADLLYSEYDYWGQGTQVTVSS	high polyreactivity
QVQLVESGGGLVQAGGSLRLSCAASGYIFRQNAMGWYRQAPGKERELVAAISRSDDNTFYADSVKGRFTISRDNAKNTVYLLMNSLKPEDTAVYYCAKYAVPWRYPRGYDYWGQGTQVTVSS	low polyreactivity
QVQLVESGGGLVQAGGSLRLSCAASGYIFRWYAMGWYRQAPGKERELVAAISGRGGRTYYADSVKGRFTISRDNAKNTVYLQMNSLKPEDTAVYYCAAVPVVQSQPTYYYWGQGTQVTVSS	high polyreactivity
QVQLVESGGGLVQAGGSLRLSCAASGYIFSGYAMGWYRQAPGKERELVAAISSNGGSTYYADSVKGRFTISRDNAKNTVNLQMNSLKPEDTAVYYCNRGLAARVGRGDYWGQGTQVTVSS	low polyreactivity
QVQLVESGGGLVQAGGSLRLSCAASGYIFSLYAMGWYRQAPGKERELVADITTSAGSTYYADSVKGRFTISRDNAKNTVYLQMNSLKPEDTAVYYCAADVYGHTYYDYDYWGQGTQVTVSS	low polyreactivity
QVQLVESGGGLVQAGGSLRLSCAASGYIFTEYAMGWYRQAPGKERELVAAIDWSGGSTYYADSVKGRFTISRDNAKNTVYLQMNSLKPEDTAVYYCAKYYYTSIVGYDSWGQGTQVTVSS	low polyreactivity

Sequence	polyreactivity (PSR sort gate)
QVQLVESGGGLVQAGGSLRLSCAASGYIFTRNAMGWYRQAAGKERELVATISSRGGRTYYADSVKGRFTISRDNAKNTVYLQMNSLKPEDTAVYYCAATPWYRTRTYDYWGQGSQVTVSS	high polyreactivity
QVQLVESGGGLVQAGGSLRLSCAASGYIFTYNAMGWYRQAPGKERELVAAISSGGSTNYADSVKGRFTISRDNAKNTVYLQMNSLKPEDTAVYYCAAPVWTYDDYFSYSYSYGYWGQGTQVTVSS	low polyreactivity
QVQLVESGGGLVQAGGSLRLSCAASGYIFVHYAMGWYRQEPGKERELVAAISKSGSSTYYADSVKGRFTISRDNAKNTVYLQMHSLKPEDTAVYYCAGVYPYVSGYTYGYWGQGTQVTVSS	low polyreactivity
QVQLVESGGGLVQAGGSLRLSCAASGYIFVKNAMGWYRQAPGTERELVAAISTRGGRTYYADSVKGRFTISRDNAKNTVYLQMNSLKPEDTAVYYCAAVHQTSYYDANSYGYWGQGTQVTVSS	high polyreactivity
QVQLVESGGGLVQAGGSLRLSCAASGYIFVTNAMGWYRQAPGKERELVAAISYRGGSTSYADSVKGRFTISRDNAKNTVYLQMNSLKPEDTAVYYCNAVTFPLGYLRFYYWGQGTQVTVSS	low polyreactivity
QVQLVESGGGLVQAGGSLRLSCAASGYIFVTNAMGWYRQAPGKERELVAAISYRGGSTSYADSVKGRFTISRDNAMNTVYLQMNSLKPEDTAVYYCNAVTFPLGYLRFYYWGQGTQVTVSS	low polyreactivity
QVQLVESGGGLVQAGGSLRLSCAASGYIFWENAMGWYRPAPGKERELVAAITVSGGGTYYADSVKGRFTISRDNAKNTVYLQRNSLKPEDTAVYYCAADEDNPWLWFYYWGQGTQVTVSS	low polyreactivity
QVQLVESGGGLVQAGGSLRLSCAASGYIFWENAMGWYRQAPGKERELVAAITVSGGGTYYADSVKGRFTISRDNAKNTVYLQMNSLEPEDTAVYSCAADEDNPWLWFYYCGQGTQVTVSS	low polyreactivity
QVQLVESGGGLVQAGGSLRLSCAASGYIFYDNAMGWYRQAPVKERELVAAISASGGDTYYADSVKGRFTISRDNAKNTVYLQMNSLKPDDTAVYYCAADLITYAMEYWGQGTQVTVSS	low polyreactivity
QVQLVESGGGLVQAGGSLRLSCAASGYIFYFYAMGWYRQAPGKERELVAAISSSGGSTRYADSVKGRFTISRDNAKNTVYLQMNSLKPEDTAVYYCAASHWSGAAWYYYWGQGTQVSVSS	high polyreactivity
QVQLVESGGGLVQAGGSLRLSCAASGYIFYNAMGWYRQAPGKERELVASISRRSGSTYYADSVKGRFTISRDNAKNTVYLQMNSLKPEDTAVYYCAADRPPWETYGYDYWGQGTQVTVSS	low polyreactivity
QVQLVESGGGLVQAGGSLRLSCAASGYIISYNTMGWYRPAPGKERELVASIRWGGGRTYYADSVKGRFTISRDNAKNTVYLQLNSLKPEDTAVYYCNVKSSRFLDVGRMEYWGQGTQVTVSS	high polyreactivity
QVQLVESGGGLVQAGGSLRLSCAASGYILDVYAMGWYRQAHGKERELVAVITWRTDSTYYADSVKGRFTISRDNAKNTVYLQMNSLKPEDTAVYYCAKVLRLSKYRYYYWGQGTQVTVSS	high polyreactivity
QVQLVESGGGLVQAGGSLRLSCAASGYILGKNVMGWYRPAPGKERELVAAISSGGRTYYADSVKGRFTISRDNAKNTVYLQMNSLKPEDTAVYYCAPDLKYYGYDYWGQGTQVTVSS	high polyreactivity
QVQLVESGGGLVQAGGSLRLSCAASGYILQKYAMGWYRQAPGKERELVATISGGGGSTYYADSVKGRFTISRDNAKNTVYLLMNSLKPEDTAVYYCAKEYPWLPRSYEYWGQGTQVSVSS	low polyreactivity
QVQLVESGGGLVQAGGSLRLSCAASGYILRNAMGWYRQAPGKERELVAAIRFRGGSTSYADSVKGRFTISRYNAKNTVYLQMKSLKPEDTAVYYCNALWWVIRPYQRHDYWGQVTQVTVSS	low polyreactivity
QVQLVESGGGLVQAGGSLRLSCAASGYILRRNAMGWYRQAPGKERELVARINSSGGSTYYADSVKGRFTISRDNAKNTVYLQMNSLKPEDTAVYYCAKSYYRGRDYWGQGTQVTVSS	high polyreactivity
QVQLVESGGGLVQAGGSLRLSCAASGYILYANTMGWYRQAPGKERELVAAISGGGSTNYADSVKGRFTISRDNAKNTVYLQMNSLKPEDTAVYYCAVKTNQAGYDYWGQGTQVTVSS	low polyreactivity
QVQLVESGGGLVQAGGSLRLSCAASGYISNANAMGCYRQAPGKERELVAAITWSGGSTYADSVKGRFTITRDNAKNTVYLQMNSLKPEDTAVYYCAVGPYRVAKYNYWGQGTQVTVSS	low polyreactivity
QVQLVESGGGLVQAGGSLRLSCAASGYISYYYAMGWYREAPGKEREFVAGISWSGGSTYYADPVKGRFTISRDNAKNTVYLQMNSLKPEDTAVYDCAARLSRWWPPTGVHYSDRYYGGQGTQVTVSS	high polyreactivity
QVQLVESGGGLVQAGGSLRLSCAASGYISYYYAMGWYRQAPGKEREFVAGISWSGGSTYYADPVKGRFTISRDNAKNTVYLQMNSLKTEDTAVYYCAARLSRWWPPTRVHYTDRYYWGQGTQVTVSS	high polyreactivity
